Data from patent US12371817 (TEXAS A AND M UNIVERSITY SYSTEM, dated 2025).
Numbered stars: 1 amine (or outer) side, 2 acyl side, 3 side chain; on linkers, the order of the positions; unused ones are H or OH. Square brackets hold non-standard residues; d marks the D form. Ends that are not written are not given here. * marks the point of attachment. thBuK = N^ε-thiobutyryl-lysine, CCCC(=S)NCCCC[C@H](N[*:1])C(=O)[*:2]; Crotonyl(E) = C/C=C/C(=O)*; Abu = CC[C@H](N)C(=O)O

What was measured:
[1] = target: T1, ENL (UniProt Q03111 1-148, limits assumed); assay: fluorescence polarization, 5-FAM-conjugated peptide binding to ENL
T1 construct: also called ENL protein
T1 sequence (looked up): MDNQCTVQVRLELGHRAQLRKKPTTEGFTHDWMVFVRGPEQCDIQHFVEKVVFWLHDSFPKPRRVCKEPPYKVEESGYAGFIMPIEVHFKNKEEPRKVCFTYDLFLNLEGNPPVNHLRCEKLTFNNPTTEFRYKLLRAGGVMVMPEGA

[2] = target: T2, recombinant human sirtuin 2 (His6-SIRT2) (human, UniProt Q8IXJ6 1-389); assay: deacetylase inhibition
T2 chain: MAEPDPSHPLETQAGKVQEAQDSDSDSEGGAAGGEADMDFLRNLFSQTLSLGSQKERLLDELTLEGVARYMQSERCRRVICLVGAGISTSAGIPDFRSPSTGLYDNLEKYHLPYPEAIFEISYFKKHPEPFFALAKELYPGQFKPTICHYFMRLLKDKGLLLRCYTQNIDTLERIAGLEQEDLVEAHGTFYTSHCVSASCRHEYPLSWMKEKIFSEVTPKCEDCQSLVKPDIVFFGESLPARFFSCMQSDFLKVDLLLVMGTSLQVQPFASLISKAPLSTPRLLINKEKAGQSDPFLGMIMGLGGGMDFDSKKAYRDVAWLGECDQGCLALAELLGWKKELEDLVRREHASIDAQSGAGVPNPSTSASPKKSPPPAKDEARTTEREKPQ

[3] = target: T3, human sirtuin 3 (GST-SIRT3) (human, UniProt Q9NTG7 102-399); assay: cell-based or functional assay
T3 sequence (looked up): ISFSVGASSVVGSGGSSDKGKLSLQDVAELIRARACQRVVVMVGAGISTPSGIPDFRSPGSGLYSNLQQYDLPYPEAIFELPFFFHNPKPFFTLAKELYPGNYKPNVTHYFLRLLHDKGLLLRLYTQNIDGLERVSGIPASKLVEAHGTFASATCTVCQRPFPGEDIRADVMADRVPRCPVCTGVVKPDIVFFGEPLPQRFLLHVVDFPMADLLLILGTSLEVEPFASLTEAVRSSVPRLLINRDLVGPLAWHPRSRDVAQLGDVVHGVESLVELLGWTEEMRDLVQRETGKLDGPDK

[4] = target: T4, recombinant human sirtuin 2 (His6-SIRT2) (human, UniProt Q8IXJ6 1-389); assay: cell-based or functional assay
T4 sequence (looked up): T2 chain

[5] = target: T5, human sirtuin 1 (His6-SIRT1) (human, UniProt Q96EB6 1-747); assay: cell-based or functional assay
T5 sequence (looked up): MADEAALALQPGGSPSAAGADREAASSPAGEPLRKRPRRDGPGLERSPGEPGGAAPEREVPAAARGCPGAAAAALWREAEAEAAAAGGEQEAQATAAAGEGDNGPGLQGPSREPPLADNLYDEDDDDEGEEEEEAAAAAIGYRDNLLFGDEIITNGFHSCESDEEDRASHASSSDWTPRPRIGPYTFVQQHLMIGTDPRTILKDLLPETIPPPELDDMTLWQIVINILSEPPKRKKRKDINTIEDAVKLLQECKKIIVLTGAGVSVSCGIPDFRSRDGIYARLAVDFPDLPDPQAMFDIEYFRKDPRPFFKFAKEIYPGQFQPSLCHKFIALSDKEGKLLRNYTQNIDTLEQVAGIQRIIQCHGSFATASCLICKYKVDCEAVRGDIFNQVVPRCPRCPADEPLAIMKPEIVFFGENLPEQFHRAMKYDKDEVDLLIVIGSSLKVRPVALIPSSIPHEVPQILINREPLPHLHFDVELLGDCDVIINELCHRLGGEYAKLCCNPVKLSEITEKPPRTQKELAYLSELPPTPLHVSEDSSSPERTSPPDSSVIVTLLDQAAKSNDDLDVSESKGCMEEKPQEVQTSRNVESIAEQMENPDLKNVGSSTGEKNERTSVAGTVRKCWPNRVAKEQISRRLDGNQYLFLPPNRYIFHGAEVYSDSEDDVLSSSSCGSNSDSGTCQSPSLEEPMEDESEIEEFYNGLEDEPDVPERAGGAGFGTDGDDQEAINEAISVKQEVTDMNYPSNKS

B1: 5-FAM-conjugated 7CrKEnl2 (peptide)
peptide: SK(Crotonyl(E))DIWCF
modifications: also: 5-FAM conjugated, site not given here
- Kd [1]: 90 nM

B2: S2P03 (NH2-CTVXTSL-NH2), synthesized with N^ε-thiobutyryl-lysine (thBuK) in place of BuK (peptide)
peptide: H-CTV[thBuK]TSL-NH2
SMILES: CCCC(=S)NCCCC[C@H](NC(=O)[C@@H](NC(=O)[C@@H](NC(=O)[C@@H](N)CS)[C@@H](C)O)C(C)C)C(=O)N[C@H](C(=O)N[C@@H](CO)C(=O)N[C@@H](CC(C)C)C(N)=O)[C@@H](C)O
- IC50 [2]: 68 nM

B3: S2P04 (NH2-TCTVXIG-NH2), synthesized with N^ε-thiobutyryl-lysine (thBuK) in place of BuK (peptide)
peptide: H-TCTV[thBuK]IG-NH2
SMILES: CCCC(=S)NCCCC[C@H](NC(=O)[C@@H](NC(=O)[C@@H](NC(=O)[C@H](CS)NC(=O)[C@@H](N)[C@@H](C)O)[C@@H](C)O)C(C)C)C(=O)N[C@H](C(=O)NCC(N)=O)[C@@H](C)CC
- fold by which SIRT2 is inhibited more potently than SIRT3 [3]: 152 fold
- fold more potent than TB (sirtuin inhibition) [3]: ≥ 33 fold
- fold more potent than TB (sirtuin inhibition) [4]: ≥ 33 fold
- fold by which SIRT2 is inhibited more potently than SIRT1 [5]: 2.7 fold
- fold more potent than TB (sirtuin inhibition) [5]: ≥ 33 fold
- IC50 [2]: 92 nM

B4: Ac-S2P04-5 (Ac-CTVXI-NH2) (peptide)
peptide: Ac-CTV[thBuK]I-NH2
SMILES: CCCC(=S)NCCCC[C@H](NC(=O)[C@@H](NC(=O)[C@@H](NC(=O)[C@H](CS)NC(C)=O)[C@@H](C)O)C(C)C)C(=O)N[C@H](C(N)=O)[C@@H](C)CC
- IC50 [2]: 191 nM

B5: 5-FAM-conjugated 7CrKEnl1 (peptide)
peptide: DIWCFK(Crotonyl(E))G
modifications: also: 5-FAM conjugated, site not given here
- Kd [1]: 94 nM

B6: S2P04-5, truncated version of S2P04 containing only the five residues of the consensus motif (peptide)
peptide: CTV[thBuK]I-NH2
modifications: N-terminus assumed
SMILES: CCCC(=S)NCCCC[C@H](NC(=O)[C@@H](NC(=O)[C@@H](NC(=O)[C@@H](N)CS)[C@@H](C)O)C(C)C)C(=O)N[C@H](C(N)=O)[C@@H](C)CC
- IC50, inhibition of SIRT2 (fluorogenic sirtuin substrate assay) [4]: 136 nM

B7: S2P07 (NH2-CTFXVPT-NH2), synthesized with N^ε-thiobutyryl-lysine (thBuK) in place of BuK (peptide)
peptide: H-CTF[thBuK]VPT-NH2
SMILES: CCCC(=S)NCCCC[C@H](NC(=O)[C@H](Cc1ccccc1)NC(=O)[C@@H](NC(=O)[C@@H](N)CS)[C@@H](C)O)C(=O)N[C@H](C(=O)N1CCC[C@H]1C(=O)N[C@H](C(N)=O)[C@@H](C)O)C(C)C
- IC50 [2]: 101 nM

B8: S2P04 (Abu)-5 (NH2-ZTVXI-NH2, Z is aminobutyric acid) (peptide)
peptide: H-[Abu]TV[thBuK]I-NH2
SMILES: CCCC(=S)NCCCC[C@H](NC(=O)[C@@H](NC(=O)[C@@H](NC(=O)[C@@H](N)CC)[C@@H](C)O)C(C)C)C(=O)N[C@H](C(N)=O)[C@@H](C)CC
- IC50 [2]: 119 nM
